We go through 1 molecule from patent US8129349B2, “Treatment of disease by inducing cell apoptosis” (The Regents of the University of California, priority 2000, dated 2012).

Assay [1] concerns C/EBPβ-Ala^217 stellate cells. The experiment in a line: Apoptosis of stellate cells from C/EBPβ-Ala^217 transgenic mice, Hoechst 33342 nuclear staining. The format is cell-based, mouse. As to conditions: collagen type I; IETD or transfection 1 μg. The method, then: FIG. 2 provides results showing increased apoptosis in hepatic stellate cells from C/EBPβ^−/− and C/EBPβ-Ala^217 transgenic mice. […] Six hours after cultivation, an annexin-V-PE binding assay was performed (P<0.05 for C/EBPβ^−/− and C/EBPβ-Ala^217). […] Apoptotic cells are indicated with arrowheads.
Fluorescent labels were observed using a triple-channel fluorescence microscope. The fluorochromes utilized were FITC and Texas red (Molecular Probes). The number of annexin V (+) cells was determined by in vivo microscopy as known in the art (See, Rudel and Bokoch, supra) among all cells or those expressing the GFP indicator protein either co-transfected with C/EBPβ proteins, or alone. These values are reported herein as a percentage of annexin V (+) for cells expressing the transfected DNA. At least 1000 cells were analyzed per experimental point, including at least 100 cells expressing the transfected DNA (Buck and Chojkier, EMBO J., 15:1753-1765 (1996); Buck et al., (1994), supra; and Buck et al., (1999), supra). […] Nuclear morphology was analyzed by staining cells with Hoechst 33342 (Molecular Probes). […]

Assay [2] deals with T1, caspase 8 (Homo sapiens, UniProt Q14790).
T1 construct: 21 amino acid linker (vector-derived) (N); purchased Alexis Biochemicals 201-041-C005
The experiment in a line: In vitro self-activation of recombinant caspase 8. The format is biochemical. As to conditions: peptides 200 μM, 2 h, procaspase 8 (0.2 μg), colorimetric substrate. The method, then: FIG. 5 provides results showing the direct association of C/EBPβ-Glu^217 with procaspases 1 and 8. […] Enzyme activity was measured in the absence (control) or presence of C/EBPβ peptides (200 μM) for 2 h, using a procaspases 1 (1U) (not shown) and 8 (0.2 μg) activity assay. Values are presented as the mean±one half the range of duplicates. Panel C provides results for cells cultured on a collagen type I matrix and incubated with the indicated cell permeant, purified synthetic N-acetyl, C-aldehyde C/EBPβ tetra-peptides (10 μM) or with recombinant C/EBPβ-HA peptides as indicated, together with the Chariot reagent (Active Motif) for 4 h. Control cells were incubated without peptides (P<0.05 for all peptides containing Ala^217).
FIG. 7 provides data showing that phosphorylation of rat C/EBPβ on Ser^105 prevents stellate cell apoptosis. Panel A provides results for mouse stellate cells transfected as described herein (See, FIG. 2), with mutant p90RSK or treated with lactacystin (10 μM) (closed bars), and co-transfected with CMV-rC/EBPβ-Asp^105 (1 μg each) (open bars) as indicated. Annexin-V-PE binding was determined as described for FIG. 2 (P<0.05 for rC/EBPβ-Asp^105). Panel B provides results of an annexin-V-PE assay for stellate cells from C/EBPβ^+/+ (closed circles) and rC/EBPβ-Asp^105 transgenic (open circles) mice treated with lactacystin (0-30 μM). The annexin-V-PE assay was performed 6 hours after treatment began (P<0.05 for rC/EBPβ-Asp^105 transgenic mice for 5-25 μM lactacystin). Panel C provides results for rC/EBPβ-HA constructs (0.3 μg) transfected into rat stellate cells. The expressed peptides were immunoprecipitated with anti-HA antibodies. Using a specific antibody, rCEBPβ-PSer^105 was detected only in cells that expressed wild-type rC/EBPβ. […] Reciprocal immunoprecipitations confirmed these associations. […] Enzyme activity was measured using a colorimetric substrate as described in the Examples. […]
Purified recombinant C/EBPβ peptides, expressed as known in the art (See, Descombes et al., supra; and Buck et al. (1994), supra), and purified synthetic N-acetyl, C-aldehyde tetrapeptides (200 μM) (American Peptide Company) were assayed for their ability to inhibit the activity of purified human recombinant caspases 1 (catalogue # 201-056) and 8 (catalogue # 201-041-C005) (Alexis Biochemicals). […] Caspase activity was determined by the release of the p-nitroaniline colorimetric (Alexis Biochemicals) substrate for caspase 1 (catalogue # 260-026) or 8 (catalogue # 260-045) within the linear part of the kinetic assay (Thornberry et al. (1997), supra; Stennicke and Salvesen, supra). […]

T1 sequence (Q14790 217-479): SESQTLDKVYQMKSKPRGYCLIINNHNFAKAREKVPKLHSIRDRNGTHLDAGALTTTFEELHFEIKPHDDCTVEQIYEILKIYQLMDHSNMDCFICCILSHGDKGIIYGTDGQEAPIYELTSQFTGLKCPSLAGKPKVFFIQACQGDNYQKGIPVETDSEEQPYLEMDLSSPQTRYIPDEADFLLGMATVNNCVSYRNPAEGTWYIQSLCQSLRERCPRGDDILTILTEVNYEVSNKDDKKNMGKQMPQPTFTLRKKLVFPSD

B1: C/EBPβ-Glu^217: modified murine C/EBPβ with mutation of Thr^217 to glutamic acid (SEQ ID NO:4), phosphorylation mimic (protein, listed as Mus musculus)
chain: MHRLLAWDAACLPPPPAAFRPMEVANFYYEPDCLAYGAKAARAAPRAPAAEPAIGEHERAIDFSPYLEPLAPAADFAAPAPAHHDFLSDLFADDYGAKPSKKPADYGYVSLGRAGAKAAPPACFPPPPPAALKAEPGFEPADCKRADDAPAMAAGFPFALRAYLGYQATPSGSSGSLSTSSSSSPPGTPSPADAKAAPAACFAGPPAAPAKAKAKKZVDKLSDEYKMRRERNNIAVRKSRDKAKMRNLETQHKVLELTAENERLQKKVEQLSRELSTLRNLFKQLPEPLLASAGHC
As to B1, in assay [1], the “Block of apoptosis of C/EBPβ-Ala^217 stellate cells” value is reported as “blocked”. For the same molecule, the “Inhibition of in vitro self-activation of caspase 8” value in assay [2] is “inhibited the in vitro self-activation”.
